From the domain aggregation screens of Martell et al. (2025)

test: soluble fraction after stress (log2 fold change); higher = more stays soluble; pooled small domains, quantitative proteomics; settings: stress: 50 degC
Outline: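 The stress applied to every library was 50°C. These custom libraries of small protein domains were pooled and measured at high throughput with quantitative proteomics as the read-out. Aggregation propensity is expressed as the base-two logarithm of the fold change in how much of each protein remains soluble. The higher the value, the more of that protein stays in solution.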

| Sequence | soluble fraction (log2) |
| --- | --- |
| HMDRVDGWLHDGKLYLRVVDYKTGKKSFDLAELRYGLGLQMLLYLFTLKEEGQMLFGGHEIVPAGVL | -0.391 |
| HMSVLSEQIKEQLMEDIFHKKYKAGDRIVESALARELGVSQASVREALRSLIAMGFLENEPFKGITVR | 0.0703 |
| HMDIKDRSGVTIDESNEAQQESIIRESWAEQKISGNVDNYIAYLKANGMLLETAKIELAALQEKDASLRE | 0.0421 |
| HMPEITPAMIKALLSSLSEELAFASVTKVYAVLHNLFKAALLDDTIDRNPMDKVPRPRKSKDAAL | -0.38 |
| HMSGILINGELYKPGEQMSLKQRLSIQARIQMQGEDTVKPEMLKDFYNSGGPLSKEESSEYMKSQN | -0.153 |
| HMVTVNAFGKSGPEPAAMTKEALAKGADEVRVIVDSPTAAASVRDFLIGAGLRVQLQDDEGQLIVVGEKK | 0.215 |
| HMGEMTDFETLRDMYLTGQIWNIDDLIEANGVEGRIVRRGTNYIAFNDRDGKVHKAWLHEVTINE | -0.836 |
| HMGEVYPSDIVEKMKQANLHILEGTLYPLLTRLKNAGLLNYRWVESVTGPPRKYFVMTEEGKAAF | 0.0419 |
| HMLTDMSKIRKVLKLYGKGNSKLFISTYLSLSRNTVKKYISLFEVSGKTIEEILAKSDSELELLFSG | -0.919 |
| HMSQTVKYVNTTSGLNMRTGPATSYAKITTIAYGQSVNVLSTSNGWSKINYSGSTGYVSSQYLQSKKPS | -0.942 |
| HMKQEFEMGLPNGVGEQMLAHAIEKFDVKLEHSEFGPKLIGTYEELEKAKVFLYEAIEARLNQLE | -0.0154 |
| HMLGITEGSLVRVIRSPNFGKIGTVAELPAELRMMESETMVRIAIVEIEGTNFEIPRSNLEVLET | -1.55 |
| HMDLDPNKPAIPIAYPRVLLNIMAEKGFSRTEVLAGSGLADSVFDKPDHRITPAQFLFILMNSFYLS | -0.601 |
| HMNTEKRVFAGVENTRLDHFLVEQFPEFSRTFIQQMIKSANVIVNGNIEKASYKLREGDTIMTRPM | -0.253 |
| HMVTPAQQARDTLLGALVGLARATTSEPKTDDTDVVLNAGLRLAAQPDAPEERLQRMLAIVQTEKHRV | 0.116 |
| HMTKNIIVTTSVKTSDELVEVAKNHALNLELDFNYRNKKTIKELLSSFDGLVVIYKNKISYFEDNSELF | 0.0798 |
| HMISKYLRIESDILSAIREGRLKPGDKLPGQSEMRRIYNVSAITVRKAFTDLINDGYLVGVRGSGTYVAKR | -0.703 |
| HMIETIQVPRAFNDWHEQADKTKSVFEVYAEIEASENEKLIAWVRNNQNEFAKIWLGALIPELE | -1.39 |
| HMEDPKLAQLTEQERKILDLIADGLTNRQIAEKMFLAEKTVKNYVSTILAKMGMSNRSEAAAYVARLEAG | 0.0787 |

| Sequence | soluble fraction (log2) |
| --- | --- |
| HMKSQSIFNVKKGDTLSHIAVHVLKKNKQKVTPEAINKMVSNIAFRNKIKNPDLIFPGQKLVLEY | 0.117 |
| HMEKERYDTGIGELNRVLGGGLVKGSLILISGDPGIGKSTLLLQTANNISKKYGKVLYVSGEESEEQIKIR | -0.319 |
| HMSNIQLVENLYRLRKAHHYTQQEISDLLNISRQAYSNYETSKRTPDLDSLMRLADIYGVSLDQLVNHP | -1.45 |
| HMIVPPAIPFRALGIFGPRDRPIVTFEDGPRLINAREGDVLDGRFILRRVGRESVDFAFVGLPPEITRRIP | -0.466 |
| HMLSGGEVKRIEIATILARKSGLMIFDEPEAGIDLWSFARLVETFEDIRSNTSGSLVIISHQ | 0.00488 |
| HMVSVGDIFAGRIISNENGHLLLQLLDGSKISAQTVTDLKYNIGDVLNLEIIEEKQGLIFVRQT | -0.516 |
| HMEFTKSPLDEIAGVGPARKRALLAAFGTAKAVSQAALADLEKTPGVNAATARLVYAHFHEK | -0.143 |
| HMNILNFSENIIKLRHKKGITQEELADFVGVTKASVSKWETKQSLPDIMLLPRLAAYFDVTVDELLGYEP | 0.0236 |
| HMTARYQQVEDYIVRRIQDGSWPPGHRLPSEHELVQQFGMSRMTVNRALRDLMQKGRIVRVAGVGSFVAQD | -1.41 |
| HMGGEEKALLFGDVDIREAGEITQRLEQAEIPYELRGDGSSIFVPRSRVMEARMMISADGLL | -0.0992 |
| HMSHPNAPLTPEGRRRLAVLIVEDGWTIRRAAERFQVSPATASKWARRYRAGESLTDRSSRP | -1.58 |
| HMSTTSYTQFMEDAKAGKIARVDIKGREITVTPTEGSRYVITSPGDLWMVDDLRKDGVQVYGPP | 0.101 |
| HMREIEVNYAAGDSVRVIDGPLAGFIGVVSSVEPDKNKVNVTVSMFGRETPVELELDQVETLD | 0.159 |
| HMDAEETLGARLRRLRQARGLSLAGLAQAAGLSKPSIWAWENGTTAPRRTSLLALARALDVPEQQLTGV | -0.358 |
| HMQKIENYDQFVQAFKRLSGLDLKLYKENQMKRRINNFINNHGFKENYDQFFQAITGNKELYNAFFKHLTI | -0.172 |
| HMYNSYALTARELELVNYVLKGNSRREMAEDSGLKENTVASYMKRLYRKIKVHSRKELKELFM | -0.0805 |
| HMNLNESVELGQELLSQALAQLGIRGELSPSTIDKLLAESSAKSMEELYADIGIGKRMPALVARHIFGLMD | -0.43 |
| HMEDDRMLVWFFRKSIQNGAQSEAEGRPIFEGKDYVHIQQPGERDYIEREAHQGDIGRWPRHWQAYQEGR | -0.329 |
